assay: soluble on expression in E. coli; label from the status in PepcDB or PDB records

Row | Sequence | soluble on expression in E. coli
1 | MAHHHHHHMRGTPLREGHHSPTQSVRRFFSDYQHVQEEKVNLPRLKLRGLPFDASEEEIKTFFKNFQLAKVGYPIHIIRGVKNKPTGQAHVYFDDEEEARKACETLNRKFLRNRYIEIYTDYIFNHNLTLVKEHVTTLMRDRYRKDNQ | not soluble
2 | MDSETLPESEKYNPGPQDFLLKMPGVNAKNCRSLMHHVKNIAELAALSQDELTSILGNAANAKQLYDFIHTSFAEVVSKGKGKK | soluble
3 | LVPEAPAPFEEPLPPEATDQWQDRALCAQTDPEAFFPEKGGSTREAKKICMGCEVRHECLEYALAHDERFGIWGGLSERERRRLKRGII | soluble
4 | MSLGGSIKSPQSLTIDIIKRDYLNFKNKKILSFKDIKPKYDSQSDYHGNAIYYFMFYNKLKEFENIQNEKFKIKKEILKSYIIIIDEINRGNVSKIFGELITLIEPSKRIGEKEELKVTLPYSGEKFGVPKNVYIIGTMNTADRSITSLDTALRRRFEFVEMMPDVSKLSMDCEGINLQELLKAINTRIEYLLDREKTIGHAFFVSVENLEDLKKVFQNKIIPLLQEYFYNDYALINAVLNDNDMIFEDKKDDKYLQKIKNLDSVNSERSIYNIASFDDKIWDKIEIYQAIYNDEIANKLKNEGHHHHHH | not soluble
5 | SKFGKSLSNQIEQTLPEWQDKFLSYKELKKRLKLIGSKTADRPVKRLRLDEFSVGISKEEINFIQLLEDELEKFNNFFVEKEEEYIIRLKEFRDRIAKAKDSMEKMIKIRKEIVDFHGEMVLLENYSALNYTGLVKILKKYDKRTGDLMRLPFIQKVLQQPFYTTDLLFKLVKESEAMLDQIFPANETESEIIQAELSEHKFMESLHMKSTIAALRVLKEIRSGSSTVSVFSLPPLQLNGLDETWKKIPLLEQEAK | soluble
6 | MSLKALNKETAPKVQRPERIIQFGEGNFLRAFVDWIIYNMNQKTDFNSSVVVVQPIDKGMVDMLNAQDDLYHVNLQGLDKGEVVNSLTMIDVISRALNPYTQNDEFMKLAEQPEMRFVISNTTEAGIAFDPTCKLEDAPASSYPGKLTQLLYHRFKTFNGDKTKGLIIFPCELIFLNGHKLKETIYQYIDLWNLGNEFKTWFEEACGVYATLVDRIVPGFPRKDIAAIKEKIQYDDNLVVQAEIFHLWVIEAPQEVAKEFPADKAGLNVLFVPSEAPYHERKVTLLNGPHTVLSPVAYLSGVNIVRDACQHEVIGKYIHKVMFDELMETLNLPKEELKKFAEDVLERFNNPFVDHAVTSIMLNSFPKYETRDLPGLKTYLERKGELPKGLVLGLAAIITYYKGGVRADGAEIVPNDAPEIMNLLKELWATGCTKKVTEGVLAAEFIWGEDLNKIPGLAAAVKADLDSIQEKGMLETVKGILEGHHHHHH | soluble
7 | MTTKEFEDTWAYNTIGSPFPDNPVRVKGQQNMYVALWYKFGKPIHGRAWNDNGNVECSFPYNKVELTGARDLGGQIQILTATEQDPTEQFKKTGFWYEWRPYKDRVNDQLLQLVRCGQSTPVIMKTKDGKDLLGYIDMSTEVAAVGVSGKSEQVAGGPIQDMLVLFRNVKAPPKGIKIYDDTWLDLKYRDPFPAARNPIAAGGRKVKSDDGTEMFQYVALWYEHGQPVFGRAYPDSADKTLANFGWGGQENAGAEIGSFQMLVVPDPDILGFEYKWIPYKEAKAGGPFKPLHVGECTPCLLKDANGTERLGNLHMGMEKATAGLAGKDSAVSGPAVGDFLVLCRN | soluble
8 | MTAGEVLSQSEIDALLAALSAGEMSAEELKKEEEGRRVKTYDFRRALRFSKDQIRSLTRIHENFARLLTTFFSAQLRTYVQISVASADQIPYEEFVRSIPKMTIINVFEVPPLGGHVLLEVNPNIAYAMLDRVMGGRGVGMDKVEHLTEIETRIMSNLFDKAFVHWRDAWESVAEVDPLFVDFEVNPQFLRMIAPNDTVVVISLNTQIGEARGMMNVCIPHVVLEPIMPRLSVHYWMQAQKKERSPEEAKRIEQRIRAAKLPIIAELGTAVITVNEFLQLEAGDVIQLEQSIHEPLVVKIGHIPKFIGQPGKRNKKLAVQILAMIEGDEDDHDE | not soluble
9 | MFLRIDRLQIELPMPKEQDPNAAAAVQALLGGRFGEMSTLMNYMYQSFNFRGKKALKPYYDLIANIATEELGHIELVAATINSLLAKNPGKDLEEGVDPESAPLGFAKDVRNAAHFIAGGANSLVMGAMGEHWNGEYVFTSGNLILDLLHNFFLEVAARTHKLRVYEMTDNPVAREMIGYLLVRGGVHAAAYGKALESLTGVEMTKMLPIPKIDNSKIPEAKKYMDLGFHRNLYRFSPEDYRDLGLIWKGASPEDGTEVVVVDGPPTGGPVFDAGHDAAEFAPEFHPGELYEIAKKLYEKAK | soluble
10 | MSLNGITKYVEKVKGLLFSSVQSQKRIEFSNNDEKVMLSNVPLIQQLPELDRGCEVTSLAMMLQYAGVSVDKMKLANEIKKVNFMEDGVRGNPNEGFVGNIYTFSESGYGVYHGPLFQLAKKYLPNKAVDLTGKSIEEIYKSVKAGHPVVMITNATYAPLDEDEFTTWETNSGDVSITYNEHCVVLVGYDKESVYIRDPLDDSLDVKVPREKFEQAWVQMGSQAISYVNKSKEGHHHHHH | soluble
11 | MKRRLDDQESPVYAAQQRRIPGSTEAFPHQHRVLAPAPPVYEAVSETMQSATGIQYSVTPSYQVSAMPQSSGSHGPAIAAVHSSHHHPTAVQPHGGQVVQSHAHPAPPVAPVQGQQQFQRLKVVFSSFSWVKKFIFSRKYWLQLVGCGGTTSNLRY | not soluble
12 | MLIRAMQKSDYEAVYKLWCEIKGFGIRSIDDSKENIENFLDRNPNLSVVAVIDEEIVGSILCGHDGRTGGFYHVCVHKDHRKKGIAHEMAKFCLEALKAQKINKIALIAFKNNDLGNEFWKHYGFTLREDANYYDLSLNEYNQTSFNA | not soluble
13 | MVAEVSPKLAASPMKKPFGFRGKMGKWCCCCFPCCRGSGKNNMGAWRDHDDSAFTEPRYHVRREDLGKLHRAAWWGEVPRADLIVMLRGPGINKRDKKKRTALHLACANGNSEVVSLLLDRQCQLHVFDSKKRTALIKAVQCQEDECALMLLQHGTDPNLPDMYGNTALHYAVYNEDKLMAKTLLLYGADIESKNKGGLTPLLLAVHGQKQRMVKFLIKKKANLNALDRFGRTALILAVRCGSASIVSLLLQQNIDVFSQDVFGQTAEDYAVSSHHSIICQLLSDYKENQMPNNSSGNSNPEQDLKLTSEEEPQRLKGSENSQHEKVTQEPDINKDCDREVEEEMQKHGSNNVGLSENLTDGAAAGNGDGGLVPQRKSRKHENQQFPNTEIEEYHRPEKKSNEKNKVKSQIHSVDNLDDITWPSEIASEDYDLLFSNYETFTLLIEQLKMDFNDSASLSKIQDAVISEEHLLELKNSHYEQLTVEVEQMENMVHVLQK | not soluble
14 | MTDVRHCPAVLIAAPASGQGKTTVTAALARLHRNRGRKVRVFKCGPDFLDPMILERASGAAVYQLDMWMVGEQESRRLLWEAAGEADLILIEGVMGLFDGTPSSADLARHFGVPVLGVIDGTAMAQTFGALALGLARYQPDLPFAGVLANRVGTLRHAQLLEGSLTEGLRWYGALSRETDIELPSRHLGLVQASELNDLDLRLDAAAEALASSCQVELPPAVSFAAPTPVACAPLLKGVRIAVARDEAFAFTYGASLDLLRAMGAQLSFFSPIHDTQLPDADSLYLPGGYPELHHQALARNSSMLQAIRAHHAAGKPLLAECGGMLYLLDSLTDVEGQRAELLGLLPGDAVMQKRLAALALQAVDLPEGSLRGHTYHHSLTSTELLPIARGLSPNGGRGAEAVYRQGRMTASYVHFYFPSNPAAVAALFAPGAPVEPVLAEGVAGELEHHHHHH | not soluble
15 | MKRGYVLHHRPYRESSALVNLLVDGIGRVDAVARVGSGKRSIKSILQPFQPLIFEFSGKSELKNISQIEAAAPAVPLSGYSLYAGMYINELLMRTLSVQHNAEALFFIYHQALVGLAAQFCESKLRYLELALLRELGAMPSLIRDTQGEPLIPEHCYQLVPELGFQFVLNSRAKHTYQGAMLTALNDNQLLQEQFLEAKRLMRSMLQPLLGNKPLVSRQLFIQAAASKVDGNN | not soluble
16 | MHSQVFSAFPHSLPLRSWVNVIKNPQFVFDIHKGSITDACLSVVAQTFMDSCSTSEHRLGKDSPSNKLLYAKDIPSYKSWVERYYADIAKLPAISDQDMNAYLAEQSRLHAVEFNMLSALNEIYSYVSKYSEELIGALEQDEQARRQRLAYKVEQLINAMSIESLEHHHHHH | not soluble
17 | GPGSMKRFGIWTRPSLGRRSFYAGLDDSRVMRLRRSNTTLNKPRGRDAFSLAFEKRIHLLPLTQVGDLYGLPVPPSAPGESSGGAAEETIRVLVVDLLLLEDVESLISFPASNPLYYEDWPTVSDNSEGEVPSDRRSGISSSLALGESGFSLPSSNKRHLRQYGDTTLLRNSFVREAAHGVSAQFHTAICINPFIDVDRFRREEAQVEMISAYRNILYEAAEVPDGRADVIRIPALCCDTCGPRFYHEIGKLNQQSLIKGFHRIGSEAKETLMLNPKFIVEVYVPLPFLQQFQRAFLEDAWETPESTLNPGRTALYPGLAPPRSLLPLEGWIGKRPELVEAIETEGRSLMSGVKYSLDGKPIEEREVLAELRVFGREKEQEEMLKREEETATQQGLEVAPNGNTVAPLRAGIDQN | not soluble
18 | MKLKSFGVFGNPIKHSKSPLIHNACFLTFQKELRFLGHYHPILLPLESHIKSEFLHLGLSGANVTLPFKERAFQVCDKIKGIALECGAVNTLVLENDELVGYNTDALGFYLSLKQKNYQNALILGAGGSAKALACELKKQGLQVSVLNRSSRGLDFFQRLGCDCFMEPPKSAFDLIINATSASLHNELPLNKEVLKGYFKEGKLAYDLAYGFLTPFLSLAKELKTPFQDGKDMLIYQAALSFEKFSASQIPYSKAFEVMRSVFLEHHHHHH | soluble
19 | MGPLLVWHRGDLRLHDHPALLEALARGPVVGLVVLDPNNLKTTPRRRAWFLENVRALREAYRARGGALWVLEGLPWEKVPEAARRLKAKAVYALTSHTPYGRYRDGRVREALPVPLHLLPAPHLLPPDLPRAYRVYTPFSRLYRGAAPPLPPPEALPKGPEEGEIPREDPGLPLPEPGEEAALAGLRAFLEAKLPRYAEERDRLDGEGGSRLSPYFALGVLSPRLAAWEAERRGGEGARKWVAELLWRDFSYHLLYHFPWMAERPLDPRFQAFPWQEDEALFQAWYEGKTGVPLVDAAMRELHATGFLSNRARMNAAQFAVKHLLLPWKRCEEAFRHLLLDGDRAVNLQGWQWAGGLGVDAAPYFRVFNPVLQGERHDPEGRWLKRWAPEYPSYAPKDPVVDLEEARRRYLRLARDLARG | soluble
20 | MGSDKIHHHHHHMAKKTAVVDLGSNSIRMVIFEKTSRYGFYTTCEYKRKVRLGENAYNNGKILQEEAMQRAEDALAFFKQCALKHKCKKIFIVGTSALRDAPNSKNFIKRIKDNLSLNIRCIDGKSESYLGGLAALNLLSPFKDGTTLDIGGGSSELCLIKNNRIISCISLDIGTVRLKELFYDTGKMDSLEEFIKPILEQIPKEFCNQNLIAIGGSLRAISNSIMQKNSYPLKNLHDFRYMLDEEKGHILKIFNSNLDSLINFGIKKDRFDTIKEGIFIFLKIAEKIKAKQVITSGVGIREGVYLQDLLRPKITFPPNFNPSLKCLQDKFLQSKQKNKTPHFALQIFTTLKNLHKLNDNYKHTLLNAAKLCHIGEYLNFYFANEHSAHFVLGGLNYGFSHKEKALIASIIKLNGKKVNPYNLEPYKQLLPNIHTISWLNFILCLAKTLSANEDKIDFAFANNTLYIYQENKILNLPKDELKKIAKPATIALAINQKI | not soluble
21 | MSRLRSTPIPGTRDSYTQVDFNLGFHVRHYDVSLDYVVAPNRLKAVVTLSMDTYQPLRSLTLDLSDALTVKSVTAQGTSAVAVRVQKFRHRNHKLRISFTEEIPVDQEFKITVTYSGNPRPIRSTWGLIGWEELSNGSLVASQPNGARSWLPCDDTPDEK | not soluble

From the DeepSol protein solubility set
